The record followed here is article PMC10216714, “NMR and Patch-Clamp Characterization of Yeast Mitochondrial Pyruvate Carrier Complexes” (Biomolecules, 2023).

Data set [1] concerns the target T1, Saccharomyces cerevisiae mitochondrial pyruvate carrier 1 (Mpc1) with C-terminal 8×His-tag (Saccharomyces cerevisiae), P53157.
T1 chain: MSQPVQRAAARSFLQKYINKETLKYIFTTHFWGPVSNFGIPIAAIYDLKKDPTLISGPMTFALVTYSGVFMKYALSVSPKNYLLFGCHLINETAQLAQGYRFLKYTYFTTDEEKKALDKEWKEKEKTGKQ
Nature of the data set: SEC-MALS; Superdex 75 with Dawn HELEOS II, three-detector method (MALS/UV/RI), 0.3 mL/min; 100 mM Tris/HCl pH 7.5, 150 mM NaCl, 1 mM EDTA, 10 mM β-ME, 1 mM DPC, 2 mM LDAO; second elution peak of each complex. As to conditions: remark: other sources report otherwise.

Data set [2] concerns the molecule itself. Described as above.
Data set [3] deals with T2, Mpc1^linker: Mpc1 with C-terminal ENLYFQG (TEV site), flexible linker (GGGGS)4, WSHPQFEK and 8×His-tag (Saccharomyces cerevisiae, UniProt P53157 1-130).
T2 construct: Mpc1, Saccharomyces cerevisiae, NCBI NM_001180945; The extension was added so that Mpc1 and Mpc2 can be told apart by size on SDS-PAGE; no TEV cleavage is described; not shown: 8×His, C-terminal, kept
T2 sequence (looked up): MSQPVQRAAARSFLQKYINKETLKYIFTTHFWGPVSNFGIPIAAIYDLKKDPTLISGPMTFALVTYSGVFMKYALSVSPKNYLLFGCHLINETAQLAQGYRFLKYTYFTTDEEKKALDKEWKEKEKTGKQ
Nature of the data set: SEC; monomers refolded alone or pre-mixed 1:1 in LDAO/DPC (2:1), then Superdex 75 10/300 GL in 100 mM Tris/HCl pH 7.5, 150 mM NaCl, 1 mM EDTA, 10 mM β-ME, 1 mM DPC, 2 mM LDAO; peaks analysed by SDS-PAGE with Coomassie staining. As to conditions: both partners purified.

In data set [4] the target is T3, Saccharomyces cerevisiae mitochondrial pyruvate carrier 1 (Mpc1) with C-terminal 8×His-tag (Saccharomyces cerevisiae, UniProt P53157 1-130).
T3 construct: Mpc1, Saccharomyces cerevisiae, NCBI NM_001180945; amplified from a cDNA library with printed primers that run from the ATG to the last codon before the stop; 15N-labelled where it was the observed partner in NMR; The reverse primer carries a BamHI site, so a few vector-coded residues may lie between Mpc1 and the His-tag (surmised); also called 15N-Mpc1; yeast Mpc1
T3 sequence (looked up): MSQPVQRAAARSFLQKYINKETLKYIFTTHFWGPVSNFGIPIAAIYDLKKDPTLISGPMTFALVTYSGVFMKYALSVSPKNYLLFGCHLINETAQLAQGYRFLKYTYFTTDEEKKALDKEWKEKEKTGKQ
The data set is described as follows: paramagnetic relaxation enhancement (PRE) NMR; MTSL-labelled monomer co-refolded with 15N-labelled monomer; 1H-15N BEST-TROSY with and without vitamin C; 25 mM NaAc pH 6.0, 50 mM glutamic acid, 50 mM arginine, 10 mM β-ME, 1 mM EDTA, 1 mM DPC, 2 mM LDAO; 308 K, 850 MHz. As to conditions: both partners purified.

B1: Saccharomyces cerevisiae mitochondrial pyruvate carrier 1 (Mpc1) with C-terminal 8×His-tag, P53157 1-130 (natural protein)
chain: MSQPVQRAAARSFLQKYINKETLKYIFTTHFWGPVSNFGIPIAAIYDLKKDPTLISGPMTFALVTYSGVFMKYALSVSPKNYLLFGCHLINETAQLAQGYRFLKYTYFTTDEEKKALDKEWKEKEKTGKQ
B1 registered a stoichiometry N in data set [1] of 2.

B2: Saccharomyces cerevisiae mitochondrial pyruvate carrier 2 (Mpc2) with C-terminal 8×His-tag (natural protein, UniProt P38857 1-129, looked up)
chain: MSTSSVRFAFRRFWQSETGPKTVHFWAPTLKWGLVFAGFSDMKRPVEKISGAQNLSLLSTALIWTRWSFVIKPRNILLASVNSFLCLTAGYQLGRIANYRIRNGDSISQLCSYILSGADESKKEITTGR
notes: Mpc2, Saccharomyces cerevisiae, NCBI NM_001179293; amplified from a cDNA library with printed primers that run from the ATG to the last codon before the stop; 15N-labelled where it was the observed partner in NMR; The reverse primer carries a BamHI site, so a few vector-coded residues may lie between Mpc2 and the His-tag (surmised); also called 15N-Mpc2; yeast Mpc2
Turning to B2, the “stoichiometry N” value is 2 in data set [2] and roughly 1 in data set [3].

B3: MTSL-labelled Mpc2 monomer (MTSL on C86 and C111) (natural protein, Saccharomyces cerevisiae, UniProt P38857 1-129, looked up)
chain: MSTSSVRFAFRRFWQSETGPKTVHFWAPTLKWGLVFAGFSDMKRPVEKISGAQNLSLLSTALIWTRWSFVIKPRNILLASVNSFLCLTAGYQLGRIANYRIRNGDSISQLCSYILSGADESKKEITTGR
modifications: MTSL spin label on C86 and C111
notes: Mpc2, Saccharomyces cerevisiae, NCBI NM_001179293; same construct as m2, not isotope-labelled; Same chain as m2 with the paramagnetic probe on its cysteines; also called MTSL–Mpc2; source: E. coli Rosetta 2 (DE3), inclusion bodies, purified
With B3, the binding result in data set [4] is reported as “binds”.
